Experimental data: patent publication EP0701605B2, “IMPROVED ENZYMES AND DETERGENTS CONTAINING THEM” (BASF SE, priority 1994, dated 1995)

Substrate: C[C@H](NC(=O)CCC(=O)O)C(=O)N[C@@H](C)C(=O)N1CCC[C@H]1C(=O)N[C@@H](Cc1ccccc1)C(=O)Nc1ccc([N+](=O)[O-])cc1
Test: AAPF-pNA assay, kinetic parameters
Format: biochemical, Bacillus lentus DSM 5483
Conditions: 100 mM Tris pH 8.6, 25°C
Description: Two different protease assays were used. With the HPE method protease activity was established at a single concentration of casein as substrate. In the AAPF-pNA assay initial rates of succinyl-L-alanyl-L-alanyl-L-prolyi-L-phenylalanyl-p-nitroanilide (AAPF-pNA; Bachem Bioscience, Philadelphia, PA) supported catalysis were used to determine the kinetic parameters Km, kcat, and kcat/Km.
Protease samples were diluted with 50% (v/v) 1,2-propanediol in 100 mM Tris, adjusted with 2 N HCl to pH 8.6 at 25°C ('Tris-propanediol buffer'), in which they were stable for at least 6 h at room temperature. A stock solution of 160 mM AAPF-pNA was prepared in dimethylsulfoxide dried over molecular sieve beads (Aldrich; 4 A, 4-8 mesh) for at least 24 h prior to use. Fixed point assays were performed at 25°C with 1.6 mM AAPF-pNA in 100 mM Tris, adjusted with 2 N HCl to pH 8.6 at 25°C, in a total volume of 1.020 ml. The substrate was added to the assay buffer 1 minute prior to the assay initiation and the reaction was started by addition of enzyme at a final concentration of 20 ng to 1.3 µg of protein per ml (0.75 to 48.5 nM enzyme) depending on specific activity. Release of p-nitroanilide was monitored at 410 nm, and a molar extinction coefficient of 8,480 M^-1cm^-1 was used to calculate amount and concentration of product formed (DelMar, E.G., Largman, C., Brodrick, J.W., and Geokas, M.C. (1979) Anal Biochem. 99, 316-320).
Kinetic parameters were calculated from a velocity vs. substrate concentration plot constructed from initial rates measured once each at 12 different AAPF-pNA concentrations ranging from 0.16 to 3.2 mM. Data were fitted to a hyperbolic curve and proportionally weighted using the program ENZFITTER (Leatherbarrow, R.J. (1987) ENZFITTER. Biosoft, Cambridge, UK). A nominal molecular weight of 26.8 kDa was used in all calculations that required the interconversion of protein concentration and molarity of protease enzyme (Table 4).

[1] = other: F54, AAPF-pNA 0.16 to 3.2 mM
[2] = other: F44, AAPF-pNA 0.16 to 3.2 mM
[3] = other: M131, AAPF-pNA 0.16 to 3.2 mM
[4] = other: F55, AAPF-pNA 0.16 to 3.2 mM
[5] = other: F46, AAPF-pNA 0.16 to 3.2 mM
[6] = other: F47, AAPF-pNA 0.16 to 3.2 mM
[7] = other: F11, AAPF-pNA 0.16 to 3.2 mM
[8] = other: F49, AAPF-pNA 0.16 to 3.2 mM
[9] = other: F45, AAPF-pNA 0.16 to 3.2 mM
[10] = other: F43, AAPF-pNA 0.16 to 3.2 mM

B1: Bacillus lentus DSM 5483 alkaline protease (BLAP) variant F54, S3T + V41 + R99G + A188P + V193M + V199I + L211D, SEQ ID NO:17 (Lederbergia lenta; … (protein)
chain: AQTIPWGISRVQAPAAHNRGLTGSGVKVAVLDTGISTHPDLNIRGGASFVPGEPSTQDGNGHGTHVAGTIAALNNSIGVLGVAPSAELYAVKVLGADGGGAISSIAQGLEWAGNNGMHVANLSLGSPSPSATLEQAVNSATSRGVLVVAASGNSGASSISYPARYANAMAVGATDQNNNRASFSQYGPGLDIMAPGVNIQSTYPGSTYASDNGTSMATPHVAGAAALVKQKNPSWSNVQIRNHLKNTATSLGSTNLYGSGLVNAEAATR
notes: made in house; host or cells: Bacillus subtilis DB104
- Km [1]: 5500 µM
- kcat [1]: 7 s⁻¹
- kcat/Km [1]: 1300 M⁻¹ s⁻¹

B2: Bacillus lentus DSM 5483 alkaline protease (BLAP) variant F44, S3T + V41 + R99A + A188P + V193M + V1991, SEQ ID NO:12 (Lederbergia lenta; … (protein)
chain: AQTIPWGISRVQAPAAHNRGLTGSGVKVAVLDTGISTHPDLNIRGGASFVPGEPSTQDGNGHGTHVAGTIAALNNSIGVLGVAPSAELYAVKVLGADGAGAISSIAQGLEWAGNNGMHVANLSLGSPSPSATLEQAVNSATSRGVLVVAASGNSGASSISYPARYANAMAVGATDQNNNRASFSQYGPGLDIMAPGVNIQSTYPGSTYASLNGTSMATPHVAGAAALVKQKNPSWSNVQIRNHLKNTATSLGSTNLYGSGLVNAEAATR
notes: as for B1
- Km [2]: 2490 µM
- kcat [2]: 257 s⁻¹
- kcat/Km [2]: 103000 M⁻¹ s⁻¹

B3: Bacillus lentus DSM 5483 alkaline protease (BLAP) variant M131, S3T + V41 + A188P + V193M + V1991, SEQ ID NO: 24 (Lederbergia lenta; A188P/S3T/V193M/V199I/V4I) (protein)
chain: AQTIPWGISRVQAPAAHNRGLTGSGVKVAVLDTGISTHPDLNIRGGASFVPGEPSTQDGNGHGTHVAGTIAALNNSIGVLGVAPSAELYAVKVLGADGRGAISSIAQGLEWAGNNGMHVANLSLGSPSPSATLEQAVNSATSRGVLVVAASGNSGASSISYPARYANAMAVGATDQNNNRASFSQYGPGLDIMAPGVNIQSTYPGSTYASLNGTSMATPHVAGAAALVKQKNPSWSNVQIRNHLKNTATSLGSTNLYGSGLVNAEAATR
notes: site-specific mutagenesis of DNA encoding the mature form of wild type BLAP; made in house; host or cells: Bacillus subtilis DB104
- Km [3]: 980 µM
- kcat [3]: 153 s⁻¹
- kcat/Km [3]: 156000 M⁻¹ s⁻¹

B4: Bacillus lentus DSM 5483 alkaline protease (BLAP) variant F55, S3T + V41 + S154E + A188P + V193M + V1991 + L211D, SEQ ID NO:18 (Lederbergia lenta; … (protein)
chain: AQTIPWGISRVQAPAAHNRGLTGSGVKVAVLDTGISTHPDLNIRGGASFVPGEPSTQDGNGHGTHVAGTIAALNNSIGVLGVAPSAELYAVKVLGADGRGAISSIAQGLEWAGNNGMHVANLSLGSPSPSATLEQAVNSATSRGVLVVAASGNEGASSISYPARYANAMAVGATDQNNNRASFSQYGPGLDIMAPGVNIQSTYPGSTYASDNGTSMATPHVAGAAALVKQKNPSWSNVQIRNHLKNTATSLGSTNLYGSGLVNAEAATR
notes: as for B1
- Km [4]: 4300 µM
- kcat [4]: 11 s⁻¹
- kcat/Km [4]: 2600 M⁻¹ s⁻¹

B5: Bacillus lentus DSM 5483 alkaline protease (BLAP) variant F46, S3T + V41 + S154E + A188P + V193M + V1991, SEQ ID NO:14 (Lederbergia lenta; … (protein)
chain: AQTIPWGISRVQAPAAHNRGLTGSGVKVAVLDTGISTHPDLNIRGGASFVPGEPSTQDGNGHGTHVAGTIAALNNSIGVLGVAPSAELYAVKVLGADGRGAISSIAQGLEWAGNNGMHVANLSLGSPSPSATLEQAVNSATSRGVLVVAASGNEGASSISYPARYANAMAVGATDQNNNRASFSQYGPGLDIMAPGVNIQSTYPGSTYASLNGTSMATPHVAGAAALVKQKNPSWSNVQIRNHLKNTATSLGSTNLYGSGLVNAEAATR
notes: as for B1
- Km [5]: 2000 µM
- kcat [5]: 358 s⁻¹
- kcat/Km [5]: 179000 M⁻¹ s⁻¹

B6: Bacillus lentus DSM 5483 alkaline protease (BLAP) variant F47, S3T + V41 + S154D + A188P + V193M + V1991, SEQ ID NO:15 (Lederbergia lenta; … (protein)
chain: AQTIPWGISRVQAPAAHNRGLTGSGVKVAVLDTGISTHPDLNIRGGASFVPGEPSTQDGNGHGTHVAGTIAALNNSIGVLGVAPSAELYAVKVLGADGRGAISSIAQGLEWAGNNGMHVANLSLGSPSPSATLEQAVNSATSRGVLVVAASGNDGASSISYPARYANAMAVGATDQNNNRASFSQYGPGLDIMAPGVNIQSTYPGSTYASLNGTSMATPHVAGAAALVKQKNPSWSNVQIRNHLKNTATSLGSTNLYGSGLVNAEAATR
notes: as for B1
- Km [6]: 2000 µM
- kcat [6]: 249 s⁻¹
- kcat/Km [6]: 124000 M⁻¹ s⁻¹

B7: Bacillus lentus DSM 5483 alkaline protease (BLAP) variant F11, S3T + R99S + A188P + V193M + V1991, SEQ ID NO:10 (Lederbergia lenta; A188P/R99S/S3T/V193M/V199I) (protein)
chain: AQTVPWGISRVQAPAAHNRGLTGSGVKVAVLDTGISTHPDLNIRGGASFVPGEPSTQDGNGHGTHVAGTIAALNNSIGVLGVAPSAELYAVKVLGADGSGAISSIAQGLEWAGNNGMHVANLSLGSPSPSATLEQAVNSATSRGVLVVAASGNSGASSISYPARYANAMAVGATDQNNNRASFSQYGPGLDIMAPGVNIQSTYPGSTYASLNGTSMATPHVAGAAALVKQKNPSWSNVQIRNHLKNTATSLGSTNLYGSGLVNAEAATR
notes: as for B1
- Km [7]: 1880 µM
- kcat [7]: 174 s⁻¹
- kcat/Km [7]: 92000 M⁻¹ s⁻¹

B8: Bacillus lentus DSM 5483 alkaline protease (BLAP) variant F49, S3T + V4I + A188P + V193M + V1991 + L211D, SEQ ID NO:16 (Lederbergia lenta; … (protein)
chain: AQTIPWGISRVQAPAAHNRGLTGSGVKVAVLDTGISTHPDLNIRGGASFVPGEPSTQDGNGHGTHVAGTIAALNNSIGVLGVAPSAELYAVKVLGADGRGAISSIAQGLEWAGNNGMHVANLSLGSPSPSATLEQAVNSATSRGVLVVAASGNSGASSISYPARYANAMAVGATDQNNNRASFSQYGPGLDIMAPGVNIQSTYPGSTYASDNGTSMATPHVAGAAALVKQKNPSWSNVQIRNHLKNTATSLGSTNLYGSGLVNAEAATR
notes: as for B1
- Km [8]: 3500 µM
- kcat [8]: 38 s⁻¹
- kcat/Km [8]: 11000 M⁻¹ s⁻¹

B9: Bacillus lentus DSM 5483 alkaline protease (BLAP) variant F45, S3T + V41 + R99S + A188P + V193M + V1991, SEQ ID NO:13 (Lederbergia lenta; … (protein)
chain: AQTIPWGISRVQAPAAHNRGLTGSGVKVAVLDTGISTHPDLNIRGGASFVPGEPSTQDGNGHGTHVAGTIAALNNSIGVLGVAPSAELYAVKVLGADGSGAISSIAQGLEWAGNNGMHVANLSLGSPSPSATLEQAVNSATSRGVLVVAASGNSGASSISYPARYANAMAVGATDQNNNRASFSQYGPGLDIMAPGVNIQSTYPGSTYASLNGTSMATPHVAGAAALVKQKNPSWSNVQIRNHLKNTATSLGSTNLYGSGLVNAEAATR
notes: as for B1
- Km [9]: 3050 µM
- kcat [9]: 208 s⁻¹
- kcat/Km [9]: 68000 M⁻¹ s⁻¹

B10: Bacillus lentus DSM 5483 alkaline protease (BLAP) variant F43, S3T + V41 + R99G + A188P + V193M + V1991, SEQ ID NO:11 (Lederbergia lenta; … (protein)
chain: AQTIPWGISRVQAPAAHNRGLTGSGVKVAVLDTGISTHPDLNIRGGASFVPGEPSTQDGNGHGTHVAGTIAALNNSIGVLGVAPSAELYAVKVLGADGGGAISSIAQGLEWAGNNGMHVANLSLGSPSPSATLEQAVNSATSRGVLVVAASGNSGASSISYPARYANAMAVGATDQNNNRASFSQYGPGLDIMAPGVNIQSTYPGSTYASLNGTSMATPHVAGAAALVKQKNPSWSNVQIRNHLKNTATSLGSTNLYGSGLVNAEAATR
notes: as for B1
- Km [10]: 1730 µM
- kcat [10]: 171 s⁻¹
- kcat/Km [10]: 99000 M⁻¹ s⁻¹
